Square brackets hold non-standard residues; d marks the D form. Ends that are not written are not given here. hArg = N=C(N)NCCCC[C@H](N)C(=O)O; Aib = CC(C)(N)C(=O)O
Key:
[1] = target: wild-type human PTH/PTHrP receptor (hP1R-WT) (human) (UniProt Q03431); test: cell-based or functional assay
[2] = target: T1, wild-type human PTH/PTHrP receptor (hP1R-WT) (human, UniProt Q03431 27-593); test: cell-based or functional assay
T1 sequence (looked up): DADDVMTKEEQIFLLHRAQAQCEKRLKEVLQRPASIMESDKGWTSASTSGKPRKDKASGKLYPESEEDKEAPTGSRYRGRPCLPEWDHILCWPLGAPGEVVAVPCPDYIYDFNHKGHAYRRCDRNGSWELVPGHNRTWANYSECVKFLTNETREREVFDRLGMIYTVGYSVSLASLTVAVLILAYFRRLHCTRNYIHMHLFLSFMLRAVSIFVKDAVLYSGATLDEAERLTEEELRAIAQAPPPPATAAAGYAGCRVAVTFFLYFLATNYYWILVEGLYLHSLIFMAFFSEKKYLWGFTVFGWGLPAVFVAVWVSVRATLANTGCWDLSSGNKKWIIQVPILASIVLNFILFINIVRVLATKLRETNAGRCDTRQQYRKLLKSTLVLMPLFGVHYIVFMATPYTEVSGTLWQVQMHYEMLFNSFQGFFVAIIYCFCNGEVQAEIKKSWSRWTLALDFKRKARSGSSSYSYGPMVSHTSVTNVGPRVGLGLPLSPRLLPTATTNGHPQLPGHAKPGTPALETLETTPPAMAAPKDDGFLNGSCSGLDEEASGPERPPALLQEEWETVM

[3] = target: T1, wild-type human PTH/PTHrP receptor …; test: competition binding, 125I-[M]PTH(1-21) tracer, HKRK-B28 cells
Procedure: (§1) Cells were then placed on ice, the binding medium was removed, and the monolayer was rinsed three times with 0.5 mL of cold binding buffer. The cells were subsequently lysed with 0.5 mL […] NaOH and counted for radioactivity. For each tracer and in each experiment, the non-specific binding was determined as the radioactivity that bound in the presence of the same unlabeled peptide at a concentration of 1 μM, and was ˜1% of total radioactivity added for each tracer. The maximum specific binding (B₀) was the total radioactivity bound in the absence of competing ligand, corrected for nonspecific binding, and for each tracer, ranged from 8% to 20% of the total radioactivity added. Nonlinear regression was used to calculate binding IC₅₀ values (see below). Scatchard transformations of homologous competition binding data derived from studies with 26 fmol of ¹²⁵I-[Aib^{1,3},M]PTH(1-21) were employed for estimations of apparent equilibrium dissociation constant (kDapps) and total number of ligand binding sites (Bₘₐₓ), assuming a single class of binding sites and equal affinities of the iodinated and non iodinated ligand.
Relative to the apparent binding affinity of [M]PTH(1-14), most of the Aib substitutions reduced affinity, in accordance with the corresponding effects on cAMP-signaling potency (Table 1).

[4] = target: T1, wild-type human PTH/PTHrP receptor …; test: competition binding, 125I-[M]PTH(1-21) tracer, HKRK-B28 cells, 4 h at 4 C
Procedure: as §1, with “Competition Binding. Binding reactions were performed with HKRK-B28 cells or in COS-7 cells in 24-well plates. The cells were rinsed with 0.5 mL of binding buffer, and then treated successively with 100 μL binding buffer, 100 μL of binding buffer containing various amounts of unlabeled competitor ligand, and 100 μL of binding buffer containing ca. 100,000 cpm of ¹²⁵I-[M]PTH(1-21) or ¹²⁵I-[Aib^{1,3},M]PTH(1-21)} (ca. 26 fmol; final volume=300 μL). Incubations were 4 to 6 h at 4° C., at which time near equilibrium conditions were attained. Cells” for “Cells”
Peptides PTH(1-34) ([Nle^{8,21}, Tyr³⁴]PTH(1-34)amide), [M]PTH(1-14) (M = Ala^{3,12}, Gln¹⁰, Har¹¹, Trp¹⁴), and [M]PTH(1-14 analogs, or C-terminally truncated derivatives thereof, containing α-aminoisobutyric acid (Aib) substitutions at the indicated positions were functionally evaluated in HKRK-B28 cells. “M” in [Aib^{1,3}, M]PTH(1-21) = Nle⁸, Gln¹⁰, Har¹¹, Ala¹², Trp¹⁴, Arg¹⁹ and Tyr²¹. The basal cAMP values (not subtracted) were 4.0 ± 0.1 pmole/well (n = 10). Peptides were based on the rat PTH sequence and were carboxy-amidated. Competition binding analyses were performed with ¹²⁵I-[M]PTH(1-21 )amide (Ala^{1,3}) as tracer for 4 h at 4° C. Data are means (±S.E.M.) Of the number of experiments indiated (n).

[5] = target: T1, wild-type human PTH/PTHrP receptor …; test: cell-based or functional assay; remark: listed apart in the source

[Aib^11,M]PTH(1-14) (peptide)
cAMP EC50 [1]: 67 µM | cAMP EMax(obs.) [1]: 96 pmole/well

B1: [Aib^6,M]PTH(1-14) (peptide)
peptide: AVAEI[Aib]LMHQ[hArg]AKW-NH2
modifications: N-terminus assumed
SMILES: CC[C@H](C)[C@H](NC(=O)[C@H](CCC(=O)O)NC(=O)[C@H](C)NC(=O)[C@@H](NC(=O)[C@H](C)N)C(C)C)C(=O)NC(C)(C)C(=O)N[C@@H](CC(C)C)C(=O)N[C@@H](CCSC)C(=O)N[C@@H](Cc1c[nH]cn1)C(=O)N[C@@H](CCC(N)=O)C(=O)N[C@@H](CCCCNC(=N)N)C(=O)N[C@@H](C)C(=O)N[C@@H](CCCCN)C(=O)N[C@@H](Cc1c[nH]c2ccccc12)C(N)=O
notes: Aib scan of [M]PTH(1-14); also called 627 Aib-6
cAMP EC50 [2]: 230000 nM | cAMP EMax(obs.) [2]: 116 pmole/well | fold reduction in affinity relative to [M]PTH(1-14) [3]: ~3 fold | IC50 [4]: 31 µM

B2: [Aib^10,M]PTH(1-14) (peptide)
peptide: AVAEIQLMH[Aib][hArg]AKW-NH2
modifications: N-terminus assumed
SMILES: CC[C@H](C)[C@H](NC(=O)[C@H](CCC(=O)O)NC(=O)[C@H](C)NC(=O)[C@@H](NC(=O)[C@H](C)N)C(C)C)C(=O)N[C@@H](CCC(N)=O)C(=O)N[C@@H](CC(C)C)C(=O)N[C@@H](CCSC)C(=O)N[C@@H](Cc1c[nH]cn1)C(=O)NC(C)(C)C(=O)N[C@@H](CCCCNC(=N)N)C(=O)N[C@@H](C)C(=O)N[C@@H](CCCCN)C(=O)N[C@@H](Cc1c[nH]c2ccccc12)C(N)=O
notes: Aib scan of [M]PTH(1-14); Aib replaces the Gln^10 of [M]; also called 631 Aib-10
cAMP EC50 [2]: 3000 nM | cAMP EMax(obs.) [2]: 214 pmole/well | fold improvement in affinity relative to [M]PTH(1-14) [3]: 1.4 fold | IC50 [4]: 9.1 µM

B3: [Aib^3,M]PTH(1-14) (peptide)
peptide: AV[Aib]EIQLMHQ[hArg]AKW-NH2
modifications: N-terminus assumed
SMILES: CC[C@H](C)[C@H](NC(=O)[C@H](CCC(=O)O)NC(=O)C(C)(C)NC(=O)[C@@H](NC(=O)[C@H](C)N)C(C)C)C(=O)N[C@@H](CCC(N)=O)C(=O)N[C@@H](CC(C)C)C(=O)N[C@@H](CCSC)C(=O)N[C@@H](Cc1c[nH]cn1)C(=O)N[C@@H](CCC(N)=O)C(=O)N[C@@H](CCCCNC(=N)N)C(=O)N[C@@H](C)C(=O)N[C@@H](CCCCN)C(=O)N[C@@H](Cc1c[nH]c2ccccc12)C(N)=O
notes: also called 624 Aib-3
cAMP EC50 [2]: 13 nM | cAMP EMax(obs.) [2]: 269 pmole/well | cAMP EC50 in SaOS-2 cells [5]: 42 nM | cAMP EMAX(obs.) in SaOS-2 cells [5]: 330 pmole/well | fold improvement in affinity relative to [M]PTH(1-14) [3]: 8 fold | IC50 [4]: 1.7 µM

B4: [Aib^1,M]PTH(1-14) (peptide)
peptide: [Aib]VAEIQLMHQ[hArg]AKW-NH2
modifications: N-terminus assumed
SMILES: CC[C@H](C)[C@H](NC(=O)[C@H](CCC(=O)O)NC(=O)[C@H](C)NC(=O)[C@@H](NC(=O)C(C)(C)N)C(C)C)C(=O)N[C@@H](CCC(N)=O)C(=O)N[C@@H](CC(C)C)C(=O)N[C@@H](CCSC)C(=O)N[C@@H](Cc1c[nH]cn1)C(=O)N[C@@H](CCC(N)=O)C(=O)N[C@@H](CCCCNC(=N)N)C(=O)N[C@@H](C)C(=O)N[C@@H](CCCCN)C(=O)N[C@@H](Cc1c[nH]c2ccccc12)C(N)=O
notes: also called 622 Aib-1
cAMP EC50 [2]: 10 nM | cAMP EMax(obs.) [2]: 273 pmole/well | cAMP EC50 in SaOS-2 cells [5]: 22 nM | cAMP EMAX(obs.) in SaOS-2 cells [5]: 340 pmole/well | fold improvement in affinity relative to [M]PTH(1-14) [3]: 13 fold | IC50 [4]: 0.98 µM

B5: [Aib^7,M]PTH(1-14) (peptide)
peptide: AVAEIQ[Aib]MHQ[hArg]AKW-NH2
modifications: N-terminus assumed
SMILES: CC[C@H](C)[C@H](NC(=O)[C@H](CCC(=O)O)NC(=O)[C@H](C)NC(=O)[C@@H](NC(=O)[C@H](C)N)C(C)C)C(=O)N[C@@H](CCC(N)=O)C(=O)NC(C)(C)C(=O)N[C@@H](CCSC)C(=O)N[C@@H](Cc1c[nH]cn1)C(=O)N[C@@H](CCC(N)=O)C(=O)N[C@@H](CCCCNC(=N)N)C(=O)N[C@@H](C)C(=O)N[C@@H](CCCCN)C(=O)N[C@@H](Cc1c[nH]c2ccccc12)C(N)=O
notes: Aib scan of [M]PTH(1-14); also called 628 Aib-7
cAMP EC50 [2]: 2600 nM | cAMP EMax(obs.) [2]: 275 pmole/well | fold reduction in affinity relative to [M]PTH(1-14) [3]: > 10 fold | IC50 [4]: 490 µM

B6: [Aib^14,M]PTH(1-14) (peptide)
peptide: AVAEIQLMHQ[hArg]AK[Aib]-NH2
modifications: N-terminus assumed
SMILES: CC[C@H](C)[C@H](NC(=O)[C@H](CCC(=O)O)NC(=O)[C@H](C)NC(=O)[C@@H](NC(=O)[C@H](C)N)C(C)C)C(=O)N[C@@H](CCC(N)=O)C(=O)N[C@@H](CC(C)C)C(=O)N[C@@H](CCSC)C(=O)N[C@@H](Cc1c[nH]cn1)C(=O)N[C@@H](CCC(N)=O)C(=O)N[C@@H](CCCCNC(=N)N)C(=O)N[C@@H](C)C(=O)N[C@@H](CCCCN)C(=O)NC(C)(C)C(N)=O
notes: Aib scan of [M]PTH(1-14); Aib replaces the Trp^14 of [M]; also called 635 Aib-14
cAMP EC50 [2]: 350 nM | cAMP EMax(obs.) [2]: 273 pmole/well | fold reduction in affinity relative to [M]PTH(1-14) [3]: < 10 fold | IC50 [4]: 79 µM

B7: [Aib^12,M]PTH(1-14) (peptide)
peptide: AVAEIQLMHQ[hArg][Aib]KW-NH2
modifications: N-terminus assumed
SMILES: CC[C@H](C)[C@H](NC(=O)[C@H](CCC(=O)O)NC(=O)[C@H](C)NC(=O)[C@@H](NC(=O)[C@H](C)N)C(C)C)C(=O)N[C@@H](CCC(N)=O)C(=O)N[C@@H](CC(C)C)C(=O)N[C@@H](CCSC)C(=O)N[C@@H](Cc1c[nH]cn1)C(=O)N[C@@H](CCC(N)=O)C(=O)N[C@@H](CCCCNC(=N)N)C(=O)NC(C)(C)C(=O)N[C@@H](CCCCN)C(=O)N[C@@H](Cc1c[nH]c2ccccc12)C(N)=O
notes: Aib scan of [M]PTH(1-14); Aib replaces the Ala^12 of [M]; also called 633 Aib-12
cAMP EC50 [2]: 440 nM | cAMP EMax(obs.) [2]: 263 pmole/well | fold reduction in affinity relative to [M]PTH(1-14) [3]: < 10 fold | IC50 [4]: 15 µM

B8: [Aib^13,M]PTH(1-14) (peptide)
peptide: AVAEIQLMHQ[hArg]A[Aib]W-NH2
modifications: N-terminus assumed
SMILES: CC[C@H](C)[C@H](NC(=O)[C@H](CCC(=O)O)NC(=O)[C@H](C)NC(=O)[C@@H](NC(=O)[C@H](C)N)C(C)C)C(=O)N[C@@H](CCC(N)=O)C(=O)N[C@@H](CC(C)C)C(=O)N[C@@H](CCSC)C(=O)N[C@@H](Cc1c[nH]cn1)C(=O)N[C@@H](CCC(N)=O)C(=O)N[C@@H](CCCCNC(=N)N)C(=O)N[C@@H](C)C(=O)NC(C)(C)C(=O)N[C@@H](Cc1c[nH]c2ccccc12)C(N)=O
notes: Aib scan of [M]PTH(1-14); also called 634 Aib-13
cAMP EC50 [2]: 480 nM | cAMP EMax(obs.) [2]: 259 pmole/well | fold reduction in affinity relative to [M]PTH(1-14) [3]: < 10 fold | IC50 [4]: 44 µM
